Consider 6 molecules from US12134789B2, “Construction method and applications of glycosyltransferase BS-YjiC mutant” (Northwest university, priority 2023, dated 2024).

Series [1] is described as follows: Thermal stability: residual enzyme activity after incubation at 45° C. Particulars: pure enzyme incubated in water bath at 45° C. for 90 min; enzyme without high-temperature treatment as blank control. The series is classed as biochemical. As to the method: (§1) The detection methods involved in the following embodiments are as follows. • 1. Determination method of enzyme activity of glycosyltransferase BS-YjiC: 50 microliters (μL) of pure enzyme with a concentration of 1.5 milligrams per milliliter (mg/mL) is added to 950 μL of a reaction system containing 50 millimoles per liter (mM) Tris hydrochloride (Tris-HCl) (pH 8.0) buffer of 1 mM protopanaxadiol (PPD), 5 mM uridine diphosphate glucose (UDPG) and 8 mM magnesium chloride (MgCl2); reacted in a water bath at 35° C. for 30 minutes (min), then added the same volume of methanol to terminate the enzymatic reaction, so as to obtain a reacted product. The reacted product is centrifuged, then the supernatant is taken and filtered with a 0.22 micrometers (μm) filter to obtain a reaction solution, and the residual amount of PPD in the reaction solution is detected by high-performance liquid chromatography (HPLC). • 2. Definition of enzyme activity: the amount of enzyme required to convert 1 micromole (μmol) of ginsenoside PPD per minute at 35° C. and pH 8.0 is defined as one unit of enzyme activity U.
After the prepared pure enzymes are incubated in a water bath at 45° C. for 90 min, 1 mL is taken, and the residual enzyme activity of the remaining enzymes is determined according to the enzyme activity determination method of the glycosyltransferase BS-YjiC, and the percentage of residual enzyme activity is obtained by taking the enzyme activity of the pure enzyme solution without high-temperature treatment as a blank control.
The pure enzyme solutions containing wild-type glycosyltransferase BS-YjiC, K125I, N178I, P313W, K125I/N178I and K125I/P313W prepared in the step 2 of the embodiment 6 are taken, respectively, then put in a constant temperature water bath at 45° C., and sampled every 30 min. The residual enzyme activity of glycosyltransferase BS-YjiC is measured according to the enzyme activity determination method, and its thermal stability is compared.

A short description of series [2]: Initial enzyme activity of pure enzyme solutions. The series is classed as biochemical. The conditions noted are these: 35° C., pH 8.0, 1 mM PPD, 5 mM UDPG. As to the method:
as §1
The pure enzyme solutions containing the wild-type glycosyltransferase BS-YjiC, K125I, N178I, P313W, K125I/N178I, and K125I/P313W prepared above are detected respectively, and the results are shown in Table 2.

Series [3] in a line: Kinetic parameters with PPD as substrate (HPLC). The series is classed as biochemical. Particulars: 50-1000 μM PPD, 10 mM UDPG, 8 mM MgCl2, pH 8.0, 35° C., 30 min. As to the method:
0.22 μg of pure enzyme is added into 50 mM […] (pH 8.0) buffer containing 10 mM UDPG and 8 mM MgCl2, added 50, 100, 200, 300, 400, 500, 600, 800 and 1000 μM PPD respectively, reacted at 35° C. in water bath for 30 min, and then then an equal volume of methanol is added to terminate the enzymatic reaction. The reacted products are centrifuged, then the supernatants are taken and filtered by a 0.22 μm filter to obtain reaction solutions, and the remaining amount of PPD in the reaction solutions is detected by HPLC.

Series [4] in a line: Melting temperature Tm of the enzyme. The series is classed as physicochemical.

The term Km denotes the substrate concentration at which the rate is half of its maximum.

Where “and” joins values, the source holds several entries; their conditions need not be identical. Equal entries are not always repeated.

B1: WT: wild-type glycosyltransferase BS-YjiC from Bacillus subtilis 168, amino acid sequence SEQ ID NO: 1 (protein)
chain: MKKYHISMINIPAYGHVNPTLALVEKLCEKGHRVTYATTEEFAPAVQQAGGEALIYHTSLNIDPKQIREMMEKNDAPLSLLKESLSILPQLEELYKDDQPDLIIYDFVALAGKLFAEKLNVPVIKLCSSYAQNESFQLGNEDMLKKIREAEAEFKAYLEQEKLPAVSFEQLAVPEALNIVFMPKSFQIQHETFDDRFCFVGPSLGERKEKESLLIDKDDRPLMLISLGTAFNAWPEFYKMCIKAFRDSSWQVIMSVGKTIDPESLEDIPANFTIRQSVPQLEVLEKADLFISHGGMNSTMEAMNAGVPLVVIPQMYEQELTANRVDELGLGVYLPKEEVTVSSLQEAVQAVSSDQELLSRVKNMQKDVKEAGGAERAAAEIEAFMKKSAVPQ
With B1, in series [1], the “Residual enzyme activity (%)” value is recorded as 84.6%. The “Initial enzyme activity (%)” value in series [2] is listed as 100%. For the same molecule, in series [3], the Kcat was found to be 0.96 ± 0.06 s⁻¹, the Km was found to be 132 ± 32.1 µM and the Vmax was found to be 8.32 ± 0.36 U g^−1. Moreover, the “melting temperature Tm” value in series [4] worked out at 47.30 °C.

B2: N178I: BS-YjiC (SEQ ID NO: 1) mutant with asparagine at the 178th position mutated into isoleucine (protein)
chain: MKKYHISMINIPAYGHVNPTLALVEKLCEKGHRVTYATTEEFAPAVQQAGGEALIYHTSLNIDPKQIREMMEKNDAPLSLLKESLSILPQLEELYKDDQPDLIIYDFVALAGKLFAEKLNVPVIKLCSSYAQNESFQLGNEDMLKKIREAEAEFKAYLEQEKLPAVSFEQLAVPEALIIVFMPKSFQIQHETFDDRFCFVGPSLGERKEKESLLIDKDDRPLMLISLGTAFNAWPEFYKMCIKAFRDSSWQVIMSVGKTIDPESLEDIPANFTIRQSVPQLEVLEKADLFISHGGMNSTMEAMNAGVPLVVIPQMYEQELTANRVDELGLGVYLPKEEVTVSSLQEAVQAVSSDQELLSRVKNMQKDVKEAGGAERAAAEIEAFMKKSAVPQ
For the molecule B2, in series [1], the “Residual enzyme activity (%)” value worked out at 87.42%. Moreover, in series [2], the “Initial enzyme activity (%)” value was 98.76%. Besides, in series [3], the Kcat was found to be 1.01 ± 0.07 s⁻¹, the Michaelis constant (Km) came to 132 ± 33.8 µM and the Vmax worked out at 8.75 ± 0.62 U g^−1.

B3: K125I/N178I: BS-YjiC (SEQ ID NO: 1) double mutant: lysine into isoleucine (K125I) and asparagine 178 into isoleucine (protein)
chain: MKKYHISMINIPAYGHVNPTLALVEKLCEKGHRVTYATTEEFAPAVQQAGGEALIYHTSLNIDPKQIREMMEKNDAPLSLLKESLSILPQLEELYKDDQPDLIIYDFVALAGKLFAEKLNVPVIILCSSYAQNESFQLGNEDMLKKIREAEAEFKAYLEQEKLPAVSFEQLAVPEALIIVFMPKSFQIQHETFDDRFCFVGPSLGERKEKESLLIDKDDRPLMLISLGTAFNAWPEFYKMCIKAFRDSSWQVIMSVGKTIDPESLEDIPANFTIRQSVPQLEVLEKADLFISHGGMNSTMEAMNAGVPLVVIPQMYEQELTANRVDELGLGVYLPKEEVTVSSLQEAVQAVSSDQELLSRVKNMQKDVKEAGGAERAAAEIEAFMKKSAVPQ
Turning to B3, in series [1], the “Residual enzyme activity (%)” value was 98.3% and 98.25%. Besides, the “Initial enzyme activity (%)” value in series [2] came to 106.47%. For the same molecule, in series [3], the Kcat was found to be 1.01 ± 0.05 s⁻¹, the Km was 117 ± 22.5 µM and the Vmax was 8.82 ± 0.45 U g^−1. In series [4], the “increase of melting temperature Tm over natural glycosyltransferase BS-YjiC” value is 7.21 °C and the “melting temperature Tm” value turned out to be 54.51 °C.

B4: K125I: BS-YjiC (SEQ ID NO: 1) mutant with lysine mutated into isoleucine (K125I) (protein)
chain: MKKYHISMINIPAYGHVNPTLALVEKLCEKGHRVTYATTEEFAPAVQQAGGEALIYHTSLNIDPKQIREMMEKNDAPLSLLKESLSILPQLEELYKDDQPDLIIYDFVALAGKLFAEKLNVPVIILCSSYAQNESFQLGNEDMLKKIREAEAEFKAYLEQEKLPAVSFEQLAVPEALNIVFMPKSFQIQHETFDDRFCFVGPSLGERKEKESLLIDKDDRPLMLISLGTAFNAWPEFYKMCIKAFRDSSWQVIMSVGKTIDPESLEDIPANFTIRQSVPQLEVLEKADLFISHGGMNSTMEAMNAGVPLVVIPQMYEQELTANRVDELGLGVYLPKEEVTVSSLQEAVQAVSSDQELLSRVKNMQKDVKEAGGAERAAAEIEAFMKKSAVPQ
In the case of B4, in series [1], the “Residual enzyme activity (%)” value amounted to 91.05%. Further, in series [2], the “Initial enzyme activity (%)” value was 103.15%. Moreover, in series [3], the Kcat came out at 0.99 ± 0.05 s⁻¹, the Michaelis-Menten constant (Km) is 128 ± 22.4 µM and the Vmax is reported as 8.60 ± 0.41 U g^−1.

B5: K125I/P313W: BS-YjiC (SEQ ID NO: 1) double mutant: lysine into isoleucine (K125I) and proline 313 into tryptophan (protein)
chain: MKKYHISMINIPAYGHVNPTLALVEKLCEKGHRVTYATTEEFAPAVQQAGGEALIYHTSLNIDPKQIREMMEKNDAPLSLLKESLSILPQLEELYKDDQPDLIIYDFVALAGKLFAEKLNVPVIILCSSYAQNESFQLGNEDMLKKIREAEAEFKAYLEQEKLPAVSFEQLAVPEALNIVFMPKSFQIQHETFDDRFCFVGPSLGERKEKESLLIDKDDRPLMLISLGTAFNAWPEFYKMCIKAFRDSSWQVIMSVGKTIDPESLEDIPANFTIRQSVPQLEVLEKADLFISHGGMNSTMEAMNAGVPLVVIWQMYEQELTANRVDELGLGVYLPKEEVTVSSLQEAVQAVSSDQELLSRVKNMQKDVKEAGGAERAAAEIEAFMKKSAVPQ
Consider B5, for which the “Residual enzyme activity (%)” value in series [1] was 95.1% and 95.43%. In series [2], the “Initial enzyme activity (%)” value is recorded as 105.13%. In addition, in series [3], the Kcat stood at 0.98 ± 0.05 s⁻¹, the Km turned out to be 121 ± 23.1 µM and the Vmax is on record as 8.56 ± 0.44 U g^−1. For the same molecule, in series [4], the “increase of melting temperature Tm over natural glycosyltransferase BS-YjiC” value came to 5.77 °C and the “melting temperature Tm” value was found to be 53.07 °C.

B6: P313W: BS-YjiC (SEQ ID NO: 1) mutant with proline at the 313th position mutated into tryptophan (protein)
chain: MKKYHISMINIPAYGHVNPTLALVEKLCEKGHRVTYATTEEFAPAVQQAGGEALIYHTSLNIDPKQIREMMEKNDAPLSLLKESLSILPQLEELYKDDQPDLIIYDFVALAGKLFAEKLNVPVIKLCSSYAQNESFQLGNEDMLKKIREAEAEFKAYLEQEKLPAVSFEQLAVPEALNIVFMPKSFQIQHETFDDRFCFVGPSLGERKEKESLLIDKDDRPLMLISLGTAFNAWPEFYKMCIKAFRDSSWQVIMSVGKTIDPESLEDIPANFTIRQSVPQLEVLEKADLFISHGGMNSTMEAMNAGVPLVVIWQMYEQELTANRVDELGLGVYLPKEEVTVSSLQEAVQAVSSDQELLSRVKNMQKDVKEAGGAERAAAEIEAFMKKSAVPQ
As for B6, in series [1], the “Residual enzyme activity (%)” value was found to be 89.48%. The “Initial enzyme activity (%)” value in series [2] is recorded as 96.53%. In addition, in series [3], the Kcat was 1.11 ± 0.08 s⁻¹, the Km was found to be 136 ± 32 µM and the Vmax turned out to be 8.94 ± 0.60 U g^−1.
